Test results as given in patent publication US6677436.
Residue numbers refer to the chain shown, from its start.

Columns and labels:
[1] = target: T1, soluble human TF (human TF amino acids 1-219 with the FLAG peptide at the C-terminal) (human, UniProt P13726 33-251); experiment: BIACORE; antibody captured on Protein G chip, soluble TF as analyte; mean ± SD, n = 3
T1 construct: Expressed in CHO cells and purified; The entry is the whole soluble TF construct (TF 1-219 plus FLAG peptide M2); The entry may include the signal peptide; also called shTF; soluble TF
T1 sequence (P13726 other isoform, or with tags, fused parts or gaps limits assumed): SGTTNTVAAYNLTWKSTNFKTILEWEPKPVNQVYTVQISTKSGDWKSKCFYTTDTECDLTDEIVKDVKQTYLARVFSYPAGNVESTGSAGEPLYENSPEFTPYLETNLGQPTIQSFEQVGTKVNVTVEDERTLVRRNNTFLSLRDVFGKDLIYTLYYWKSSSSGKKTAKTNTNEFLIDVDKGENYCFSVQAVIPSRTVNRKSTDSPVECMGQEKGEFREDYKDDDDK

recombinant Protein G = recombinant Protein G (UniProt P19909); experiment: BIACORE; 10 µl of 72 nM antibody injected over Protein G immobilized on CM5 chip
[2] = target: T2, human tissue factor (TF) on human bladder carcinoma cells J82 (human, UniProt P13726 33-295); experiment: cell ELISA on fixed J82 cells
T2 construct: whole, on cells; J82 is described as a TF-high expression cell line; also called the antigen; J82 (ATCC HTB-1)
T2 sequence (P13726 33-295): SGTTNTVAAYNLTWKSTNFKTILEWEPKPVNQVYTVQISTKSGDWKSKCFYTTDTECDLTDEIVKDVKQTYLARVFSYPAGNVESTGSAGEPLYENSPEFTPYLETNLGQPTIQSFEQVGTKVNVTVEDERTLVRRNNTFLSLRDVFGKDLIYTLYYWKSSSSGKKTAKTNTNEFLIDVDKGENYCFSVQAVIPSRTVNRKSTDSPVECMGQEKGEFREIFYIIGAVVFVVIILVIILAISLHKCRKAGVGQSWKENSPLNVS

B1: H chain humanized version i/L chain humanized version b antibody (antibody, V domains shown)
VH: QVQLLESGAVLARPGTSVKISCKASGFNIKDYYMHWVKQRPGQGLEWIGGNDPANGHSMYDPKFQGRVTITADTSTSTVFMELSSLRSEDTAVYYCARDSGYAMDYWGQGTLVTVSS
VL: DIQMTQSPSSLSASVGDRVTITCKASQDIKSFLSWYQQKPGKAPKLLIYYATSLADGVPSRFSGSGSGTDYTLTISSLQPEDFATYYCLQHGESPYTFGGGTKVEIK
notes: Expressed from vector N5KG4P (IgG4-type, human Cgamma4 and Ckappa); also called hHvi-hLvb/N5KG4P
B1 gave a Kd [1] of 1.39 nM, a koff [1] of 0.000649 s⁻¹ and a kon [1] of 467000 M⁻¹ s⁻¹.

B2: H chain humanized version i/L chain humanized version b2 antibody (antibody, V domains shown)
VH: B1 VH
VL: B1 VL with G41E, L46S
notes: Expressed from vector N5KG4P (IgG4-type, human Cgamma4 and Ckappa); also called i-b2; ib2
In the case of B2, the RU bound (recombinant Protein G) is reported as 1000 RU, the Kd [1] is reported as 1.17 nM and the koff [1] is reported as 0.000635 s⁻¹. The kon [1] was 544000 M⁻¹ s⁻¹.

B3: H chain humanized version a/L chain chimeric antibody (antibody, V domains shown)
VH: QVQLLESGAVLARPGTSVKISCKASGFNIKDYYMHWVKQRPGQGLEWIGGNDPANGHSMYDPKFQGRAKLTAATSASIAYLEFSSLTNEDSAVYYCARDSGYAMDYWGQGTLVTVSS
VL: DIKMTQSPSSMYASLGERVTITCKASQDIKSFLSWYQQKPWKSPKTLIYYATSLADGVPSRFSGSGSGQDYSLTINNLESDDTATYYCLQHGESPYTFGGGTKLEIK
notes: Expressed from vector N5KG4P (IgG4-type, human Cgamma4 and Ckappa); also called a-ch; hHva-chLv/N5KG4P
B3: binds [2].

B4: H chain chimeric/L chain humanized version b antibody (antibody, V domains shown)
VH: EVQLQQSGTNLVRPGALVKLSCKGSGFNIKDYYMHWVKQRPEQGLEWIGGNDPANGHSMYDPKFQGKASITADTSSNTAYLQLSSLTSEDTAVYFCARDSGYAMDYWGQGTSVTVSS
VL: B1 VL
notes: Expressed from vector N5KG4P (IgG4-type, human Cgamma4 and Ckappa); also called ch-b; chHv-hLvb/N5KG4P
B4: binds [2].

B5: H chain chimeric/L chain humanized version a antibody (antibody, V domains shown)
VH: B4 VH
VL: B1 VL with Y71F
notes: Expressed from vector N5KG4P (IgG4-type, human Cgamma4 and Ckappa); also called chHv-hLva/N5KG4P
B5: binds [2].

B6: H chain chimeric/L chain humanized version c antibody (antibody, V domains shown)
VH: B4 VH
VL: B1 VL with F83I
notes: Expressed from vector N5KG4P (IgG4-type, human Cgamma4 and Ckappa); also called ch-c; chHv-hLvc/N5KG4P
B6: binds [2].

B7: H chain humanized version a/L chain humanized version a antibody (antibody, V domains shown)
VH: B3 VH
VL: B1 VL with Y71F
notes: Expressed from vector N5KG4P (IgG4-type, human Cgamma4 and Ckappa); also called hHva-hLva/N5KG4P
B7: binds [2].

B8: H chain humanized version b/L chain chimeric antibody (antibody, V domains shown)
VH: B1 VH with S77N, V79A, F80Y, V93I
VL: B3 VL
notes: Expressed from vector N5KG4P (IgG4-type, human Cgamma4 and Ckappa); also called b-ch; hHvb-chLv/N5KG4P
B8: binds [2].

B9: H chain humanized version d/L chain chimeric antibody (antibody, V domains shown)
VH: B1 VH with T74E, V79A, F80Y, T91S, Y95F
VL: B3 VL
notes: Expressed from vector N5KG4P (IgG4-type, human Cgamma4 and Ckappa); also called d-ch; hHvd-chLv/N5KG4P
B9: binds [2].

B10: H chain humanized version e/L chain chimeric antibody (antibody, V domains shown)
VH: B1 VH with T69S, T74E, S77K, T78I, V79A, F80Y, S84N, Y95F
VL: B3 VL
notes: Expressed from vector N5KG4P (IgG4-type, human Cgamma4 and Ckappa); also called e-ch; hHve-chLv/N5KG4P
B10: binds [2].

B11: H chain humanized version i/L chain chimeric antibody (antibody, V domains shown)
VH: B1 VH
VL: B3 VL
notes: Expressed from vector N5KG4P (IgG4-type, human Cgamma4 and Ckappa); also called i-ch; hHvi-chLv/N5KG4P
B11: binds [2].

B12: H chain humanized version c/L chain chimeric antibody (antibody, V domains shown)
VH: QVQLLESGAVLARPGTSVKISCKASGFNIKDYYMHWVKQRPGQGLEWIGGNDPANGHSMYDPKFQGRVTMLVDTSKNQFSLRLSSVTAADTAVYYCARDSGYAMDYWGQGTLVTVSS
VL: B3 VL
notes: Expressed from vector N5KG4P (IgG4-type, human Cgamma4 and Ckappa); also called c-ch; hHvc-chLv/N5KG4P
B12: binds [2].

B13: H chain humanized version b3/L chain humanized version b antibody (antibody, V domains shown)
VH: B1 VH with K38R, R40A, S77N, V79A, F80Y, V93I
VL: B1 VL
notes: Expressed from vector N5KG4P (IgG4-type, human Cgamma4 and Ckappa); also called b3-b; hHvb3-hLvb/N5KG4P
B13: binds [2].

B14: H chain humanized version b/L chain humanized version a antibody (antibody, V domains shown)
VH: B1 VH with S77N, V79A, F80Y, V93I
VL: B1 VL with Y71F
notes: Expressed from vector N5KG4P (IgG4-type, human Cgamma4 and Ckappa); also called b-a; hHvb-hLva/N5KG4P
B14: binds [2].

B15: H chain humanized version b/L chain humanized version b2 antibody (antibody, V domains shown)
VH: B1 VH with S77N, V79A, F80Y, V93I
VL: B1 VL with G41E, L46S
notes: Expressed from vector N5KG4P (IgG4-type, human Cgamma4 and Ckappa); also called b-b2; hHvb-hLvb2/N5KG4P
B15: binds [2].

B16: H chain humanized version b/L chain humanized version c antibody (antibody, V domains shown)
VH: B1 VH with S77N, V79A, F80Y, V93I
VL: B1 VL with F83I
notes: Humanized antibodies were expressed from vector N5KG4P (IgG4-type); the construction of the b-c plasmid itself is not described; also called b-c
B16: binds [2].

B17: H chain humanized version d3/L chain humanized version b antibody (antibody, V domains shown)
VH: B1 VH with K38R, R40A, T74E, V79A, F80Y, T91S, Y95F
VL: B1 VL
notes: Expressed from vector N5KG4P (IgG4-type, human Cgamma4 and Ckappa); also called d3-b; hHvd3-hLvb/N5KG4P
B17: binds [2].

B18: H chain humanized version g/L chain humanized version b antibody (antibody, V domains shown)
VH: B1 VH with R67K, V68A, I70L, T74E, T76S, V79A, F80Y, E82Q, T91S, Y95S
VL: B1 VL
notes: Expressed from vector N5KG4P (IgG4-type, human Cgamma4 and Ckappa); also called g-b; hHvg-hLvb/N5KG4P
B18: binds [2].

B19: H chain humanized version i/L chain humanized version b1 antibody (antibody, V domains shown)
VH: B1 VH
VL: B1 VL with Y36F, A43S, L46T
notes: Expressed from vector N5KG4P (IgG4-type, human Cgamma4 and Ckappa); also called i-b1; hHvi-hLvb1/N5KG4P
B19: binds [2].
